Results: the Human Domainome abundance scans (Beltran et al. 2025)
± gives the uncertainty stated by the source.

B1: RanBP-type and C3HC4-type zinc finger-containing protein 1, residues 369 to 411; numbered along this chain, Q9BYM8 (parent)
chain: YHCKTPDCKGWCFFEDDVNEFTCPVCFHVNCLLCKAIHEQMNC

Variants of: B1
Assay: abundance fitness (aPCA) (normalised: wild type 0, dead -1); higher = more abundant; growth selection in yeast, the domain comes from the species named
Conditions: Homo sapiens

Row | Variant | abundance fitness
1 | YHCSTPDCKGWCFFEDDVNEFTCPVCFHVNCLLCKAIHEQMNC | -0.14 ± 0.055
2 | YHCGTPDCKGWCFFEDDVNEFTCPVCFHVNCLLCKAIHEQMNC | -0.222 ± 0.038
3 | YHCFTPDCKGWCFFEDDVNEFTCPVCFHVNCLLCKAIHEQMNC | 0.028 ± 0.09
4 | YHCNTPDCKGWCFFEDDVNEFTCPVCFHVNCLLCKAIHEQMNC | -0.134 ± 0.092
5 | VHCKTPDCKGWCFFEDDVNEFTCPVCFHVNCLLCKAIHEQMNC | -0.265 ± 0.06
6 | WHCKTPDCKGWCFFEDDVNEFTCPVCFHVNCLLCKAIHEQMNC | -0.437 ± 0.074
7 | YHCKTPECKGWCFFEDDVNEFTCPVCFHVNCLLCKAIHEQMNC | 0.034 ± 0.054
8 | YHCKTPPCKGWCFFEDDVNEFTCPVCFHVNCLLCKAIHEQMNC | -0.615 ± 0.11
9 | YHCKTPHCKGWCFFEDDVNEFTCPVCFHVNCLLCKAIHEQMNC | -0.2 ± 0.067
10 | YHCKTPVCKGWCFFEDDVNEFTCPVCFHVNCLLCKAIHEQMNC | -0.597 ± 0.047
11 | YHCKTPSCKGWCFFEDDVNEFTCPVCFHVNCLLCKAIHEQMNC | -0.165 ± 0.048
12 | YHCKTPQCKGWCFFEDDVNEFTCPVCFHVNCLLCKAIHEQMNC | -0.194 ± 0.065
13 | YHCKTPKCKGWCFFEDDVNEFTCPVCFHVNCLLCKAIHEQMNC | -0.095 ± 0.074
14 | YHCKTPLCKGWCFFEDDVNEFTCPVCFHVNCLLCKAIHEQMNC | -0.2 ± 0.04
15 | YHCKTPMCKGWCFFEDDVNEFTCPVCFHVNCLLCKAIHEQMNC | -0.202 ± 0.062
16 | YHCKTPRCKGWCFFEDDVNEFTCPVCFHVNCLLCKAIHEQMNC | -0.117 ± 0.036
17 | YHCKTPWCKGWCFFEDDVNEFTCPVCFHVNCLLCKAIHEQMNC | -0.469 ± 0.044
18 | YHCKTPCCKGWCFFEDDVNEFTCPVCFHVNCLLCKAIHEQMNC | -0.656 ± 0.42
19 | YHCKTPFCKGWCFFEDDVNEFTCPVCFHVNCLLCKAIHEQMNC | -0.245 ± 0.087
20 | YHCKTPGCKGWCFFEDDVNEFTCPVCFHVNCLLCKAIHEQMNC | 0.057 ± 0.04

Row | Variant | abundance fitness
21 | YHCKTPICKGWCFFEDDVNEFTCPVCFHVNCLLCKAIHEQMNC | -0.812 ± 0.26
22 | YHCKTPDDKGWCFFEDDVNEFTCPVCFHVNCLLCKAIHEQMNC | -0.812 ± 0.15
23 | YHCKTPDRKGWCFFEDDVNEFTCPVCFHVNCLLCKAIHEQMNC | -0.908 ± 0.055
24 | YHCKTPDVKGWCFFEDDVNEFTCPVCFHVNCLLCKAIHEQMNC | -0.999 ± 0.1
25 | YHCKTPDMKGWCFFEDDVNEFTCPVCFHVNCLLCKAIHEQMNC | -0.843 ± 0.086
26 | YHCKTPDQKGWCFFEDDVNEFTCPVCFHVNCLLCKAIHEQMNC | -0.736 ± 0.12
27 | YHCKTPDLKGWCFFEDDVNEFTCPVCFHVNCLLCKAIHEQMNC | -0.846 ± 0.14
28 | YHCKTPDAKGWCFFEDDVNEFTCPVCFHVNCLLCKAIHEQMNC | -0.761 ± 0.065
29 | YHCKTPDGKGWCFFEDDVNEFTCPVCFHVNCLLCKAIHEQMNC | -0.691 ± 0.045
30 | YHCKTPDSKGWCFFEDDVNEFTCPVCFHVNCLLCKAIHEQMNC | -0.682 ± 0.076
31 | YHCKTPDTKGWCFFEDDVNEFTCPVCFHVNCLLCKAIHEQMNC | -0.919 ± 0.086
32 | YHCKTPDFKGWCFFEDDVNEFTCPVCFHVNCLLCKAIHEQMNC | -0.554 ± 0.46
33 | YHCKTPDEKGWCFFEDDVNEFTCPVCFHVNCLLCKAIHEQMNC | -0.784 ± 0.13
34 | YHCKTPDWKGWCFFEDDVNEFTCPVCFHVNCLLCKAIHEQMNC | -0.949 ± 0.13
35 | YHCKTPDCQGWCFFEDDVNEFTCPVCFHVNCLLCKAIHEQMNC | -0.033 ± 0.052
36 | YHCKTPDCRGWCFFEDDVNEFTCPVCFHVNCLLCKAIHEQMNC | 0.036 ± 0.041
37 | YHCKTPDCEGWCFFEDDVNEFTCPVCFHVNCLLCKAIHEQMNC | 0.064 ± 0.054
38 | YHCKTPDCSGWCFFEDDVNEFTCPVCFHVNCLLCKAIHEQMNC | 0.045 ± 0.041
39 | YHCKTPDCPGWCFFEDDVNEFTCPVCFHVNCLLCKAIHEQMNC | 0.047 ± 0.042
40 | YHCKTPDCGGWCFFEDDVNEFTCPVCFHVNCLLCKAIHEQMNC | -0.042 ± 0.036

Row | Variant | abundance fitness
41 | YHCKTPDCHGWCFFEDDVNEFTCPVCFHVNCLLCKAIHEQMNC | -0.259 ± 0.079
42 | YHCKTPDCFGWCFFEDDVNEFTCPVCFHVNCLLCKAIHEQMNC | -0.378 ± 0.093
43 | YHCKTPDCNGWCFFEDDVNEFTCPVCFHVNCLLCKAIHEQMNC | -0.19 ± 0.082
44 | YHCKTPDCAGWCFFEDDVNEFTCPVCFHVNCLLCKAIHEQMNC | 0.029 ± 0.044
45 | YHCKIPDCKGWCFFEDDVNEFTCPVCFHVNCLLCKAIHEQMNC | -0.533 ± 0.19
46 | YHCKAPDCKGWCFFEDDVNEFTCPVCFHVNCLLCKAIHEQMNC | -0.131 ± 0.062
47 | YHCKQPDCKGWCFFEDDVNEFTCPVCFHVNCLLCKAIHEQMNC | -0.004 ± 0.052
48 | YHCKRPDCKGWCFFEDDVNEFTCPVCFHVNCLLCKAIHEQMNC | -0.099 ± 0.043
49 | YHCKPPDCKGWCFFEDDVNEFTCPVCFHVNCLLCKAIHEQMNC | -0.764 ± 0.083
50 | YHCKYPDCKGWCFFEDDVNEFTCPVCFHVNCLLCKAIHEQMNC | -0.169 ± 0.098
51 | YHCKCPDCKGWCFFEDDVNEFTCPVCFHVNCLLCKAIHEQMNC | -0.063 ± 0.081
52 | YHCKHPDCKGWCFFEDDVNEFTCPVCFHVNCLLCKAIHEQMNC | -0.159 ± 0.067
53 | YHCKLPDCKGWCFFEDDVNEFTCPVCFHVNCLLCKAIHEQMNC | -0.004 ± 0.057
54 | YHCKNPDCKGWCFFEDDVNEFTCPVCFHVNCLLCKAIHEQMNC | -0.236 ± 0.098
55 | YHCKVPDCKGWCFFEDDVNEFTCPVCFHVNCLLCKAIHEQMNC | -0.083 ± 0.049
56 | YHCKGPDCKGWCFFEDDVNEFTCPVCFHVNCLLCKAIHEQMNC | -0.308 ± 0.039
57 | YHCKSPDCKGWCFFEDDVNEFTCPVCFHVNCLLCKAIHEQMNC | -0.054 ± 0.059
58 | YHCKEPDCKGWCFFEDDVNEFTCPVCFHVNCLLCKAIHEQMNC | -0.184 ± 0.061
59 | YHCKMPDCKGWCFFEDDVNEFTCPVCFHVNCLLCKAIHEQMNC | 0.003 ± 0.059
